Results taken from paper PMC3875231 (Nature, 2013).

Target: MalK, ATPase subunit of the maltose transporter (E. coli, UniProt P68187 1-371)
Test: crystal structure

Sequence of MalK, ATPase subunit of the maltose transporter (P68187 whole entry): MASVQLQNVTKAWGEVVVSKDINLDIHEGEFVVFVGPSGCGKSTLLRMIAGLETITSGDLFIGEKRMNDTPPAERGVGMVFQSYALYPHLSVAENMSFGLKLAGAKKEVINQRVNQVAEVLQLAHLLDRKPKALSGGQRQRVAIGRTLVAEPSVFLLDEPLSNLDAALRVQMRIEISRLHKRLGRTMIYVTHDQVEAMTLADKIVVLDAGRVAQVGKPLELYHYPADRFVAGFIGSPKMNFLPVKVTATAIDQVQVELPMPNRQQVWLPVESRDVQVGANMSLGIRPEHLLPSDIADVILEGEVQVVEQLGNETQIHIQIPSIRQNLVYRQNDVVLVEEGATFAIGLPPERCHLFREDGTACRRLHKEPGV

binding result: binds
B1: glucose-specific enzyme IIA (EIIA^Glc), full-length (natural protein, E. coli, UniProt P69783 1-169, looked up)
chain: MGLFDKLKSLVSDDKKDTGTIEIIAPLSGEIVNIEDVPDVVFAEKIVGDGIAIKPTGNKMVAPVDGTIGKIFETNHAFSIESDSGVELFVHFGIDTVELKGEGFKRIAEEGQRVKVGDTVIEFDLPLLEEKAKSTLTPVVISNMDEIKELIKLSGSVTVGETPVIRIKK
